{"source": "patent US20050266512", "tested_on": "native proaerolysin", "data": [{"substance": "trypsin", "values": [{"measurement": "decrease in absorbance (erythrocyte lysis in response to channel formation by active aerolysin)", "value": "The solid line represents native proaerolysin activated with trypsin."}]}]}
